Data published in patent US7790682B1, “Engineered human acidic fibroblast growth factors and associated methods” (The Florida State University Research Foundation, Inc., priority 2003, dated 2010).
Entries after “also recorded” stand apart in the source; their conditions may differ.

B1: SYM6: FGF-1 core mutant Leu44→Phe/Met67→Ile/Leu73→Val/Val109→Leu/Leu111→Ile/Cys117→Val (protein, UniProt P05230 16-155, looked up, variant L44F M67I L73V V109L L111I C117V)
Fibroblast growth factor 1: FNLPPGNYKKPKLLYCSNGGHFLRILPDGTVDGTRDRSDQHIQFQLSAESVGEVYIKSTETGQYLAIDTDGLVYGSQTPNEECLFLERLEENHYNTYISKKHAEKNWFLGIKKNGSVKRGPRTHYGQKAILFLPLPVSSD
B2: WTΔ120-122: Wild type FGF-1 polypeptide with a deletion at positions 120-122, SEQ ID NO: 3 (protein)
chain: FNLPPGNYKKPKLLYCSNGGHFLRILPDGTVDGTRDRSDQHIQLQLSAESVGEVYIKSTETGQYLAMDTDGLLYGSQTPNEECLFLERLEENHYNTYISKKHAEKNWFVGLKKNGSCKGTHYGQKAILFLPLPVSSD
modifications: Human FGF-1 mutant WTD120-122

Legend:
[1] = Isothermal equilibrium denaturation in guanidine HCl monitored by CD; assay type: physicochemical; settings: relative to SYM6ΔΔ
Procedure: Protein samples were equilibrated overnight in 20 mM N-2-(acetamido)iminodiacetic acid (ADA), 100 mM NaCl pH 6.60 at 298K in 0.1M increments of guanidine HCl (GuHCl). All samples contained a final protein concentration of 25 μM. An Aviv model 202 circular dichroism spectrometer (Proterion Corp., Piscataway, N.J.) equipped with a Peltier controlled temperature unit maintaining a constant temperature of 298K was used for all spectroscopic measurements. For each sample, triplicate scans were collected and averaged. Buffer traces were collected, averaged and subtracted from the sample traces. Data smoothing was performed prior to buffer subtraction using a 5-point Fourier transform filter. The denaturation process was monitored by observing the change in CD signal at 227 nm with increasing GuHCl, according to published references. The general purpose non-linear least squares fitting program DataFit™ (Oakdale Engineering, Oakdale Pa.) was used to fit the change in molar ellipticity at 227 nm versus GuHCl concentration to a six parameter two state model: F=(F0N+SN[D]+F0D+SD[D])e^−((ΔG0+m[D]/RT)/1+e^−((ΔG0+m[D]/RT) (1) where [D] is the denaturant concentration, F0N and F0D are the 0M denaturant molar ellipticity intercepts for the native and denatured states, respectively, and SN and SD are the slopes of the native and denatured state baselines, respectively. ΔG0 and m describe the linear function of the unfolding free energy versus denaturant concentration at 298K. The effect of a given mutation upon the stability of the protein (ΔΔG) was calculated by taking the difference between the Cm values for WT* and mutant and multiplying by the average of the m values, as described by Pace and Scholtz (Measuring the conformational stability of a protein; in Protein Structure: A Practical Approach, Creighton, T. E., ed., pp. 299-321, Oxford University Press, Oxford; 1997): ΔΔG=(CmWT*−Cm mutant)(mWT*+mmutant)/2 (2) Folding Kinetics Measurements.
Previous studies by others of the stability and folding of FGF-1 have been performed by monitoring the fluorescence signal of the single buried Trp 107 in FGF-1. This Trp in the WT* structure is somewhat unusual in that it is more highly quenched in the native state than the denatured. […] We have previously compared the fluorescence and CD spectroscopic response of FGF-1 to denaturation by GuHCl and shown essentially indistinguishable results for both his-tagged and non-his-tagged forms. A tabulation of the mutant thermodynamic data from isothermal equilibrium denaturation, monitored by CD signal, is listed in Table II. The data in this table for the SYM6 mutant are from our previously published isothermal equilibrium denaturation study monitored by fluorescence.

[2] = Precipitation during purification or concentration; assay type: physicochemical
Procedure: All mutant proteins, with the exception of the SYM6 mutant were expressed at levels similar to the WT* protein (i.e. ˜30-100 mg/L). […] The His-tag provides the WT* and mutant FGF-1 proteins with nickel binding affinity, and FGF-1 naturally has a heparin binding site. These two affinity sites were employed in a purification scheme utilizing sequential nickel-NTA and heparin Sepharose® affinity chromatography resins. However, mutant forms of FGF-1 involving the Δ120-122 mutation lacked heparin-binding affinity. These mutants were, therefore, purified by the substitution of gel filtration chromatography for the heparin Sepharose® affinity chromatography. The extinction coefficients used for concentration determination were E280nm (0.1%, 1 cm)=1.26 for WT* and other mutations not involving deletions or the Leu44 ? […] Phe, and E280nm (0.1%, 1 cm)=1.31 for all deletion mutations (determined by dithionitrobenzoate titration of cysteine residues).
Due to the relatively weak differential CD signal of native and denatured FGF-1, the folding kinetics study required relatively high protein concentrations (>5 mg/ml). […] The SYM6Δ120-122 mutant is substantially destabilized relative to the WT* protein (see Table II) and presents a relatively short “folding arm” in the Chevron plot, for this reason there is greater uncertainty associated with the folding kinetics determined for this mutant. […]

[3] = monitored by fluorescence signal, cited from earlier work
[4] = Heparin Sepharose affinity chromatography / heparin-binding affinity; settings: predicted from data on other Δ120-122 mutants
Source text: All studies herein disclosed utilized a synthetic gene for the 140 amino acid form of human FGF-1 with the addition of an amino-terminal six residue “His-tag” to facilitate purification using nickel nitrilotriacetic acid (Ni-NTA) affinity resin (QIAGEN, Valencia Calif.). The QuikChange® site-directed mutagenesis protocol (Stratagene, La Jolla Calif.) was used to introduce mutations, individually or in combination, using mutagenic oligonucleotides of 25 to 31 bases in length (Biomolecular Analysis Synthesis and Sequencing Laboratory, Florida State University). For deletions involving residues 104-106 and 120-122, mutagenic oligonucleotides were used to delete these positions as well as to simultaneously create point mutations Ala103 ? Gly and Arg119 ? Gly, respectively. […]
All mutant proteins, with the exception of the SYM6 mutant were expressed at levels similar to the WT* protein (i.e. ˜30-100 mg/L). […] Phe, and E280nm (0.1%, 1 cm)=1.31 for all deletion mutations (determined by dithionitrobenzoate titration of cysteine residues).
To quantify the reduced affinity for heparin (a polysulfonated polysaccharide) we determined the affinity for sucrose octasulfate, a structural mimic of a heparin dimer, by isothermal titration calorimetry. […]

NIH 3T3 fibroblasts = assay: Cell proliferation (mitogenic activity) assay; assay type: cell-based; settings: predicted from data on other Δ120-122 mutants
Procedure: NIH 3T3 fibroblasts were initially plated in Dulbecco's modified Eagle's medium (DMEM) (American Type Culture Collection, Manassas Va.) supplemented with 10% (v/v) newborn calf serum (NCS) (Sigma, St. Louis Mo.), 100 units of penicillin, 100 μg streptomycin, 0.25 μg Fungizone™ and 0.01 mg/ml gentamicin (Gibco, Carlsbad Calif.) (“serum-rich” medium) in T75 tissue culture flasks (Fisher, Pittsburgh Pa.). The cultures were incubated at 37° C. and all cell growth was performed with 5% CO2 supplementation. At approximately 80% cell confluence, the cells were washed with 5 ml cold 0.14M NaCl, 5.1 mM KCl, 0.7 mM Na2HPO4 and 24.8 mM Trizma® base, pH 7.4 (TBS) and subsequently treated with 5 ml of a 0.025% trypsin solution (Invitrogen Corp., Carlsbad Calif.). Cell synchronization was initiated by serum starvation in DMEM with 0.5% NCS, 100 units of penicillin, 100 μg streptomycin, 0.25 μg Fungizone™ and 0.01 mg/ml gentamicin (“starvation” medium). The cells were seeded in T25 tissue culture flasks (Fisher, Pittsburgh, Pa.) at a cell density of 3.0×10^4 cells/cm^2 (representing ˜20% confluence). Duplicate flasks were used for each protein concentration. Cultures were incubated for 48 hours at 37° C., the medium was then decanted and replaced with fresh medium supplemented with the appropriate concentration of FGF-1 polypeptide, and incubated for an additional 48 hours. After this incubation, the medium was decanted and the cells were washed with 1 ml cold TBS pH 7.4. 1 ml of 0.025% trypsin was then added to release the cells from the flask surface, and 2 ml of serum-rich medium were added to dilute and inhibit the trypsin. The cells were counted using a hemocytometer (Hausser Scientific Partnership, Horsham Pa.). Experiments were performed in quadruplicate and the cell densities were averaged. The relationship between the cell number and log concentration of added growth factor was fit to a sigmoidal function.
Mitogenic activity towards NIH 3T3 fibroblasts was determined for WT*, SYM5, SYM5Δ104-106, SYM5Δ120-122, and SYM6ΔΔ mutants. […] The NIH 3T3 fibroblast proliferative activity of WT* FGF-1 yielded an effective concentration for 50% maximal stimulation (EC50) of 60 ng/ml (FIG. 3).

Molecule	effect on stability of the two loop insertions [1]	precipitation / solubility (in words) [2]	Cm ([3]; previously reported) [M]	m-value ([3]; previously reported) [kJ/mol M]	ΔG0 ([3]; previously reported) [kcal/mol]	ΔΔG ([3]; relative to WT*, previously reported data) [kcal/mol]	heparin binding affinity, predicted [4]	mitogenicity, predicted (NIH 3T3 fibroblasts)
B1	+25.3 kJ/mol	tendency to precipitate during purification; also recorded: typically precipitated during concentration	0.54 ± 0.01	19.3 ± 1.9	2.49 ± 0.19	2.44	–	–
B2	–	–	–	–	–	–	decreased heparin binding affinity	increased biological activity with regard to mitogenicity
